From patent US20250066503A1, “CELL INJURY INDUCING THERAPEUTIC DRUG FOR USE IN CANCER THERAPY” (CHUGAI SEIYAKU KABUSHIKI KAISHA, priority 2016, published 2025)
Where a chain is given by its changes, count along the chain named. Names may count otherwise. Blank lines part the entries; values can stand above or below the binder they belong to.

Key:
[1] = molecular target: T1, soluble human CD3 epsilon chain (human, UniProt P07766 23-126); assay: SPR
T1 construct: also called CD3ε

[2] = molecular target: T2, human GPC3 (human, UniProt P51654 25-563); assay: SPR
T2 construct: range 25-563; soluble analyte; also called soluble human GPC3; glypican 3
T2 sequence (P51654 25-563 limits assumed): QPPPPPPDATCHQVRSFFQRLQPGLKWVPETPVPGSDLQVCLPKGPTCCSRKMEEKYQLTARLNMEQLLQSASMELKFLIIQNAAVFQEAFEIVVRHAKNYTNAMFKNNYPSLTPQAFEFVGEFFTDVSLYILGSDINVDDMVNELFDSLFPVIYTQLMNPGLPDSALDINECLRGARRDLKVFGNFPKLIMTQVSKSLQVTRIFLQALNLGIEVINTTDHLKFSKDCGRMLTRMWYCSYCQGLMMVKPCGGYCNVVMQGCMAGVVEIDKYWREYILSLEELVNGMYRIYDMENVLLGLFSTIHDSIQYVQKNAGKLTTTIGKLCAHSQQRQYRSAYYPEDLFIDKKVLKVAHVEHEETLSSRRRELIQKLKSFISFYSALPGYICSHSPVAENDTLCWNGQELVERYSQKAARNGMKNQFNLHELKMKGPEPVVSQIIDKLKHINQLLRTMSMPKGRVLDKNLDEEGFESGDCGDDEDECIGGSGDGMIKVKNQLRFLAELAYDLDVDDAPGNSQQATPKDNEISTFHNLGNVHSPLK

T1 sequence (P07766 23-126 limits assumed): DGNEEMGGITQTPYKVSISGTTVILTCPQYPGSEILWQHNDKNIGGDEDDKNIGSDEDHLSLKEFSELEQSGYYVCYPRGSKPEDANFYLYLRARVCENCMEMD

Kd [1]: 61.6 nM
Kd [2]: 4.28 nM
B1: GPC3_ERY27 (hCE115HA-E22Hh/L0000-k0/GL4-E22Hk/H0000-E22L) (bispecific antibody, human IgG1, kappa, L234A L235A, N297A)
heavy: QVQLVESGGGVVQPGRSLRLSCAASGFTFSNAWMHWVRQAPGKGLEWVAQIKAKSNNYATYYAESVKGRFTISRDDSKNSLYLQMNSLKTEDTAVYYCRYVHYGAYYGVDAWGQGTTVTVSSASTKGPSVFPLAPSSKSTSGGTAALGCLVKDYFPEPVTVSWNSGALTSGVHTFPAVLQSSGLYSLSSVVTVPSSSLGTQTYICNVNHKPSNTKVDKKVEPKSCDKTHTCPPCPAPEAAGGPSVFLFPPKPKDTLMISRTPEVTCVVVDVSHEDPEVKFNWYVDGVEVHNAKTKPREEQYASTYRVVSVLTVLHQDWLNGKEYKCKVSNKALPAPIEKTISKAKGQPREPQVYTLPPSRCELTKNQVSLSCAVKGFYPSDIAVEWESNGQPENNYKTTPPVLDSDGSFFLVSKLTVDKSRWQQGNVFSCSVMHEALHNHYTQKSLSLSPDYKDDDDK
light: DIVMTQSPLSLPVTPGEPASISCRSSQSLVHSNRNTYLHWYQQKPGQAPRLLIYKVSNRFSGVPDRFSGSGSGTDFTLKISRVEAEDVGVYYCGQGTQVPYTFGQGTKLEIKRTVAAPSVFIFPPSDEQLKSGTASVVCLLNNFYPREAKVQWKVDNALQSGNSQESVTEQDSKDSTYSLSSTLTLSKADYEKHKVYACEVTHQGLSSPVTKSFNRGEC
chain 1: DIVMTQSPLSLPVTPGEPASISCRSSQSLVHSNRNTYLHWYQQKPGQAPRLLIYKVSNRFSGVPDRFSGSGSGTDFTLKISRVEAEDVGVYYCSQNTHVPPTFGQGTKLEIKSSASTKGPSVFPLAPSSKSTSGGTAALGCLVKDYFPEPVTVSWNSGALTSGVHTFPAVLQSSGLYSLSSVVTVPSSSLGTQTYICNVNHKPSNTKVDKKVEPKSCDKTHTCPPCPAPEAAGGPSVFLFPPKPKDTLMISRTPEVTCVVVDVSHEDPEVKFNWYVDGVEVHNAKTKPREEQYASTYRVVSVLTVLHQDWLNGKEYKCKVSNKALPAPIEKTISKAKGQPREPQVCTLPPSRDELTKNQVSLWCLVKGFYPSDIAVEWESNGQPENNYKTTPPVLDSDGSFFLYSKLTVDKSRWQQGNVFSCSVMHEALHNHYTQKSLSLSPHHHHHHHH
chain 2: QVQLVQSGAEVKKPGASVKVSCKASGYTFTDYEMHWIRQPPGQGLEWIGAIDPKTGDTAYSQKFKGRVTLTADKSTSTAYMELSSLTSEDTAVYYCTRFYSYTYWGQGTLVTVSSASVAAPSVFIFPPSDEQLKSGTASVVCLLNNFYPREAKVQWKVDNALQSGNSQESVTEQDSKDSTYSLSSTLTLSKADYEKHKVYACEVTHQGLSSPVTKSFNRGEC
notes: ERY22 format

Kd [1]: 2.04 nM
Kd [2]: 0.475 nM
B2: TR01H002-E22Hh/GLS3108-k0/GL4-E22Hk/H0610-E22L (bispecific antibody, human IgG1, kappa, L234A L235A, N297A)
heavy: B1 heavy with A59K, T60K, G104Y, A105Y, D110Q
light: B1 light with H39S
chain 1: B1 chain 1
chain 2: B1 chain 2 with P53G, G56P
notes: ERY22 format

Kd [1]: 35.7 nM
Kd [2]: 0.263 nM
B3: TR01H015-E22Hh/L0000-k0/GL4-E22Hk/H0610-E22L (bispecific antibody, human IgG1, kappa, L234A L235A, N297A)
heavy: B1 heavy with V11L, A53G, D75A, L81I, G104S, Y106S, A111I
light: B1 light
chain 1: B1 chain 1
chain 2: B1 chain 2 with P53G, G56P
notes: ERY22 format
